The test has as its target HydABCD unit of the synthetic Caldanaerobacter subterranus NADH-dependent [FeFe]-hydrogenase complex (with HydC^His) (Caldanaerobacter subterranus subsp. tengcongensis). The test is described as follows: SEC-MALS; IMAC-purified enzyme on a MAbPac SEC-1 column, 50 mM Tris.HCl pH 7.5, 150 mM NaCl, 0.5 ml/min; peak fraction analysed by SDS-PAGE. In general terms: SEC sorts molecules by how far they enter the pores of the column.

The values below come from publication PMC4694547.

With “HydABCD unit of the synthetic Caldanaerobacter subterranus NADH-dependent [FeFe]-hydrogenase complex (with HydC^His)”, the stoichiometry N came out at 2.

Broadly, the stoichiometry N is the number of molecules, sites or subunits per partner or assembly.
